Measurements published in the supplement of paper PMC7877785.
± gives the uncertainty stated by the source.

Test: self-splicing fitness, log relative to wild type (ln ratio); higher = more splicing; Tetrahymena group I intron in knt gene, E. coli kanamycin selection, DiMSum; sequences stand for … in CUCUCU…GGAGGGAAAAGUUAUCAGGCAUGCACCUGGUAGCUAGUCUUUAAACCAAUAGAUUGCAUCGGUUUAAAAGGCAAGACCGUCAAAUUGCGGGAAAGGGGUCAACAGCCGUUCAGUACCAAGUCUCAGGGGAAACUUUGAGAUGGCCUUGCAAAGGGUAUGGUAAUAAGCUGACGGACAUGGUCCUAACCACGCAGCCAAGUCCUAAGUCAACAGAUCUUCUGUUGAUAUGGAUGCAGUUCACAGACUAAAUGUCGGUCGGGGAAGAUGUAUUCUUCUCAUAAGAUAUAGUCGGACCUCUCCUUAAUGGGAGCUAGCGGAUGAAGUGAUGCAACACUGGAGCCGCUGGGAACUAAUUUGUAUGCGAAAGUAUAUUGAUUAGUUUUGGAGUACUCGUGGUCG
Procedure, shortened: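 Library with all eight P1ex-region intron nucleotides randomised, intron inside the knt kanamycin-resistance gene on pET-22b(+), in E. coli BL21(DE3). Cells grew overnight at 37°C or 30°C on LB agar with or without 25 μg/mL kanamycin (plus 100 μg/mL carbenicillin, 50 μM IPTG, 0.2% rhamnose), in six replicate transformations. Pooled colonies were amplicon-sequenced on Illumina HiSeq 2500. DiMSum fitness is the error-weighted combination of wild-type-normalised replicate fold changes, kanamycin versus none.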

Sequence | self-splicing fitness (ln) (30 °C) | self-splicing fitness (ln) (37 °C)
CCGUAGCAAUAUUACGUGGC | -3.76 ± 0.26 | -2.73 ± 0.26
CCGUAGCAAUAUUACGUUGU | -3.87 ± 0.16 | -2.3 ± 0.18
CCUAAGCAAUAUUACGAACU | -3.44 ± 0.48 | -1.99 ± 0.22
CCUAAGCAAUAUUACGAAGA | -1.82 ± 0.22 | -1.82 ± 0.22
CCUAAGCAAUAUUACGAUUC | -3.13 ± 0.29 | -2.6 ± 0.41
CCUAAGCAAUAUUACGCACA | -4.21 ± 0.46 | -1.2 ± 0.35
CCUAAGCAAUAUUACGCAGA |  | -2.34 ± 0.37
CCUAAGCAAUAUUACGCCAA | -2.22 ± 0.24 | -3.27 ± 0.46
CCUAAGCAAUAUUACGCCCA | -3.67 ± 0.33 | -2.02 ± 0.33
CCUAAGCAAUAUUACGCCUU | -3.22 ± 0.21 | -2.79 ± 0.26
CCUAAGCAAUAUUACGCGAG | -4.48 ± 0.25 | -3.56 ± 0.23
CCUAAGCAAUAUUACGCUUA | -3.09 ± 0.18 | -1.97 ± 0.29
CCUAAGCAAUAUUACGGAAU | -3.6 ± 0.25 | -2.48 ± 0.19
CCUAAGCAAUAUUACGGAGC | -2.66 ± 0.35 | 
CCUAAGCAAUAUUACGGAUG | -2.08 ± 0.082 | -1.16 ± 0.085
CCUAAGCAAUAUUACGGCCG | -0.351 ± 0.18 | -0.367 ± 0.22
CCUAAGCAAUAUUACGGCUG | -3.49 ± 0.21 | -2.47 ± 0.3
CCUAAGCAAUAUUACGGGUU | -3.52 ± 0.2 | -2.84 ± 0.2
CCUAAGCAAUAUUACGGUCC |  | -2.28 ± 0.45
CCUAAGCAAUAUUACGUCCG | -1.34 ± 0.11 | -0.638 ± 0.11
CCUAAGCAAUAUUACGUUGU | -3.37 ± 0.16 | -2.15 ± 0.15
CCUCAGCAAUAUUACGACAA | -1.92 ± 0.17 | -2.31 ± 0.25
CCUCAGCAAUAUUACGAGCA | -3.04 ± 0.26 | -2.87 ± 0.25
CCUCAGCAAUAUUACGAUUC | -3.88 ± 0.43 | -2.44 ± 0.49
CCUCAGCAAUAUUACGCACA | -3.09 ± 0.48 | -2.02 ± 0.26

Sequence | self-splicing fitness (ln) (30 °C) | self-splicing fitness (ln) (37 °C)
CCUCAGCAAUAUUACGCCAG | -3.22 ± 0.16 | -0.883 ± 0.13
CCUCAGCAAUAUUACGCCCC |  | -1.39 ± 0.35
CCUCAGCAAUAUUACGCGGA | -2.68 ± 0.22 | -3.28 ± 0.26
CCUCAGCAAUAUUACGCGGU | -3.37 ± 0.19 | -2.98 ± 0.33
CCUCAGCAAUAUUACGCUAG | -4.45 ± 0.38 | -1.04 ± 0.22
CCUCAGCAAUAUUACGGCAC | -3.55 ± 0.15 | -2 ± 0.17
CCUCAGCAAUAUUACGGCCG | -2.11 ± 0.1 | -0.442 ± 0.11
CCUCAGCAAUAUUACGGCGG | -3.33 ± 0.15 | -3.35 ± 0.35
CCUCAGCAAUAUUACGGCUU | -1.94 ± 0.16 | -2.28 ± 0.21
CCUCAGCAAUAUUACGGGGG | -4.13 ± 0.28 | -2.9 ± 0.23
CCUCAGCAAUAUUACGUAUU | -4.06 ± 0.24 | -2.61 ± 0.21
CCUCAGCAAUAUUACGUCAU | -3.03 ± 0.13 | -1.77 ± 0.18
CCUCAGCAAUAUUACGUCCA | -2.26 ± 0.14 | -3 ± 0.29
CCUCAGCAAUAUUACGUGGA | -3.84 ± 0.18 | -3.02 ± 0.2
CCUGAGCAAUAUUACGAACU | -3.4 ± 0.13 | -2.42 ± 0.17
CCUGAGCAAUAUUACGAAUA | -2.69 ± 0.38 | -1.35 ± 0.21
CCUGAGCAAUAUUACGAAUC | -3.69 ± 0.33 | -2.34 ± 0.43
CCUGAGCAAUAUUACGACAC | -2.49 ± 0.49 | -2.19 ± 0.28
CCUGAGCAAUAUUACGAGGU | -2.72 ± 0.17 | -1.99 ± 0.15
CCUGAGCAAUAUUACGAUCA | -3.05 ± 0.32 | -2.42 ± 0.24
CCUGAGCAAUAUUACGAUGU | -1.94 ± 0.084 | -1.71 ± 0.098
CCUGAGCAAUAUUACGAUUC | -3.56 ± 0.27 | 
CCUGAGCAAUAUUACGCCCA | -3.82 ± 0.47 | -2.05 ± 0.34
CCUGAGCAAUAUUACGCCUC | -2.22 ± 0.29 | -1.88 ± 0.3
